This test addresses T1, SBP-fused phyB (SBP-phyB), recombinant full-length phyB (Arabidopsis thaliana, UniProt P14713 1-1172, made in phycocyanobilin-producing LMG194 (chromophore); Pfr or Pr form set by a red or far-red light pulse).
T1 construct: phytochrome B (phyB), Arabidopsis thaliana, full length; pBAD-derived vector; the Pfr and Pr forms are told apart by the assay; also called phytochrome B; Pfr form; source: phycocyanobilin-producing E. coli LMG194, purified (Ni-NTA, Streptavidin sepharose)
T1 sequence (looked up): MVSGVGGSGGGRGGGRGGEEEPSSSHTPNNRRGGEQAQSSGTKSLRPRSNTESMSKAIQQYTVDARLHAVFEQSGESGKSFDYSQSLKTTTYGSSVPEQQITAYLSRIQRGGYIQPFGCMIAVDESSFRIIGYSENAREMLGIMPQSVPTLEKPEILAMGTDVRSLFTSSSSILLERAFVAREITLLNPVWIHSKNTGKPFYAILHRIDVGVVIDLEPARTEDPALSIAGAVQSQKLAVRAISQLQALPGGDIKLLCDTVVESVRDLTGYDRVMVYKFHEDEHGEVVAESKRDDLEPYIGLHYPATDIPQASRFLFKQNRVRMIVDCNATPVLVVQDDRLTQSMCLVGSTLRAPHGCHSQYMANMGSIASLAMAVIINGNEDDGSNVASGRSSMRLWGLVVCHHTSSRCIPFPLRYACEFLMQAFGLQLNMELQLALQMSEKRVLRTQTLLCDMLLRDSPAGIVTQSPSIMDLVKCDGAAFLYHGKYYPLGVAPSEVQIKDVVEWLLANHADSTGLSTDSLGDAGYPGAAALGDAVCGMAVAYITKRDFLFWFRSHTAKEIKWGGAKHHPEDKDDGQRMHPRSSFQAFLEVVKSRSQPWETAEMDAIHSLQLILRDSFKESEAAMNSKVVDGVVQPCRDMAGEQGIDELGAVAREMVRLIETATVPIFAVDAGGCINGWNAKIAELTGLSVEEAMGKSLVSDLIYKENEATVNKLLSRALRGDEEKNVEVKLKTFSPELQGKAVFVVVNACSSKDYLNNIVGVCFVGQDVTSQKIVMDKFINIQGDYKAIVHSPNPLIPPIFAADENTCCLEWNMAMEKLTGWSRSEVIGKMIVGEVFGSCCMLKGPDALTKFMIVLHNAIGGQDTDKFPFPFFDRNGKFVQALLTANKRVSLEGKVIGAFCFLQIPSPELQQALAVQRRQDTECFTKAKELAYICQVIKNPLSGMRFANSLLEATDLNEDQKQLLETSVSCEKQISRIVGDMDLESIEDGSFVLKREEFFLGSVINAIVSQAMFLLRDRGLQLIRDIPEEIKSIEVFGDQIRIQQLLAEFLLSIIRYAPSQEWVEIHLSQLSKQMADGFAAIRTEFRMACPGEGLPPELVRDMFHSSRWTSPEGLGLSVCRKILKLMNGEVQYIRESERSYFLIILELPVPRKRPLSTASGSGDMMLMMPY
Nature of the test: pull-down; GST fusions incubated with SBP-phyB in the Pfr form (red light pulse 25 μmol/m2/s, 10 min, before the incubation), glutathione resin; 25 mM HEPES, 150 mM KCl, 1 mM DTT, pH 7.40; green safety light. The conditions noted are these: both partners purified.

B1: GST-fused PIF4 (GST-PIF4) (natural protein, Arabidopsis thaliana, UniProt Q8W2F3 1-430, looked up)
chain: MEHQGWSFEENYSLSTNRRSIRPQDELVELLWRDGQVVLQSQTHREQTQTQKQDHHEEALRSSTFLEDQETVSWIQYPPDEDPFEPDDFSSHFFSTMDPLQRPTSETVKPKSSPEPPQVMVKPKACPDPPPQVMPPPKFRLTNSSSGIRETEMEQYSVTTVGPSHCGSNPSQNDLDVSMSHDRSKNIEEKLNPNASSSSGGSSGCSFGKDIKEMASGRCITTDRKRKRINHTDESVSLSDAIGNKSNQRSGSNRRSRAAEVHNLSERRRRDRINERMKALQELIPHCSKTDKASILDEAIDYLKSLQLQLQVMWMGSGMAAAAASAPMMFPGVQPQQFIRQIQSPVQLPRFPVMDQSAIQNNPGLVCQNPVQNQIISDRFARYIGGFPHMQAATQMQPMEMLRFSSPAGQQSQQPSSVPTKTTDGSRLDH
notes: source: E. coli BL21(DE3)-CodonPlus-RIL, purified (Ni-NTA, glutathione agarose); not shown: GST, N-terminal, kept
As for B1, the binding result is “binds”.

Source of the values: paper PMC10042835, “Phytochrome B photobodies are comprised of phytochrome B and its primary and secondary interacting proteins” (Nature Communications, 2023).
